Reference: US20090275105A1, “PROCESS FOR THE PRODUCTION OF BROMELAIN BY MEANS OF SUBSTANCES THAT INDUCE PROTEINS IN PINEAPPLE PLANTS” (priority 2006, published 2009)

Assays:
[1] = Comparison of the specific activity of bromelain obtained from different methods; assay type: biochemical, Ananas comosus; conditions: 30 mg/ml protein sample; inducers: 15 days from induction
Experimental: The plantlets grown in vitro in different culture mediums indicated in this invention were taken and rinsed in running water to remove the Induction SS medium. 330 g of plants were weighed, placed in an extractor to be ground and 200 ml of juice was obtained (first extraction) that was stored at a temperature of 4° C. 670 ml of extraction buffer (monobasic potassium phosphate and dibasic potassium phosphate) is added to the pulp obtained from the extraction at a pH of 6.1 and a concentration of 0.05M; this is allowed to repose for 20 minutes in order to afterwards collect the enzyme and pass it through an extractor and thus obtain the second juice. The following step is to mix and homogenize the juice from the first extraction with the second extraction for 1 minute at 2000 rpm and to then centrifuge at 10000 rpm for 20 min. at 4° C., to afterwards recover the supernatant with a volume of approximately 800 ml which is frozen at −80° C. and lyophilized (10% of solids) for its preservation. The extraction procedure is applied for all the treatments of which the amount of protein present is determined (Bradford) expressing the protein per ml of extract in mg. A standard curve is used for the protein tests. The standard used was bovine serum albumin at 0.20-1.0 mg/ml. Based on the results, the following specific activities were obtained compared with imported commercial bromelain and bromelain induced from in vitro plants.

[2] = test system: pineapple plants (Ananas comosus); experiment: Specific enzyme activity of raw extract from pineapple plantlets induced in vitro (Dapeau method); assay type: in vivo; conditions: sacarose 30-90 g/L as inducer
Experimental: In order to perform the evaluation of the inducers, a factor design was carried out of 3×3×3 with three inducers at three different concentrations and three monitoring times (Chart 4), for each treatment The evaluations are carried out using the inducers separately or in combination giving a total of […]. […] The induction was begun with the selection of the sprouts previously established in vitro with a size of 2 cm and an average of 3 leaves and weighing 120 mg. […] Once the inducers are added to the modified SS, it is sterilized at 121° C., at a pressure of 1.2 kg/cm^2 for 20 minutes. In the treatments that contain salicylic acid, the modified SS medium is first sterilized and later the acid is added, which was sterilized through filtration, under aseptic conditions in a laminar flow hood. Here it is advisable to add the acid to the medium before it is cooled to achieve the homogenization of the inducer with the medium before it is solidified. The sprouts are planted under aseptic conditions in 460 ml flasks that contain 30 ml of the Induction SS, said flasks are closed and sealed with clear tape in order to avoid any filtering of air and with the air, contamination of same. The treatments are moved to a growth room under controlled conditions at 27±2° C. and a photoperiod of 16 hr/light and 8 hr/darkness for a period of 7, 15, 30 and 45 days. […]

[3] = bromelain obtained from stems; cited from earlier work
[4] = fractioning with ammonium sulfate; cited from earlier work
[5] = cited from earlier work

Q: For `O=C(O)c1ccccc1O` [Salicylic acid], which “Specific activity (U/mg^−1 protein)” value [1] is on record?
A: 3.17 U/mg^−1 protein

Q: Which “specific activity in induction tests, comparison of inducers” value [2] does the source give for `OC[C@H]1O[C@@](CO)(O[C@H]2O[C@H](CO)[C@@H](O)[C@H](O)[C@H]2O)[C@@H](O)[C@@H]1O` [Sacarose] here?
A: greater specific activity

Q: What about the “Specific activity (U/mg^−1 protein)” value [1] of the same compound?
A: 635 U/mg^−1 protein

Q: Which “Specific activity (U/mg^−1 protein)” value [1] does the source give for `[Cl-].[Na+]` [NaCl, sodium chloride] here?
A: 4.98 U/mg^−1 protein

Q: With Bromelain as the compound, how does the “Isoelectric Point p1” value [3] read?
A: 9.55

Q: What about the proteolytic activity [4] of the same compound?
A: 1.64 U/mg^−1

Q: And the “Stability in solutions of 25% methanol (v/v)” value ([5]; 25° C. for 20 min)?
A: stable

Q: And the “loss of activity when the enzymatic solution is heated” value ([5]; 55° C. for 20 min at pH 6)?
A: 50%

Q: And the “Optimal pH” value ([5]; Inagami and Murachi, 1963)?
A: approximately 7

Q: What about the “loss in activity caused by lyophilization” value ([5]; Murachi et al., 1964) of the same compound?
A: 27%
